Results reported in the MegaScale stability set (Tsuboyama et al. 2023).

B1: HHH_rd1_0493 (parent)
chain: RDEDEKEKIKEALKRGNEDKAKEIAKRANVSPEEYERLRKEAE

Variants of: B1
Test: folding stability dG (cDNA display proteolysis); higher = more stable
Conditions: PBS, room temperature

Row | Variant | folding stability dG [kJ/mol]
1 | V30K | 3.84
2 | V30D | 1.34
3 | V30P | 1.26
4 | V30S | 2.64
5 | V30A | 3.55
6 | V30N | 1.63
7 | V30C | 7.08
8 | V30I | 14.3
9 | V30Q | 3.2
10 | V30H | 2.03
11 | V30F | 9.62
12 | V30W | 7.25
13 | V30Y | 7.72
14 | V30M | 12.1
15 | V30L | 12.9
16 | V30E | 1.82
17 | V30T | 7.69
18 | V30G | 1.63
19 | V30R | 2.03
20 | R37D | 8.44
21 | R37H | 8.89
22 | R37W | 9.05
23 | R37E | 10
24 | R37K | 11.2

Row | Variant | folding stability dG [kJ/mol]
25 | R37A | 10.5
26 | R37Q | 11
27 | R37L | 10.1
28 | R37V | 9.36
29 | R37M | 10.4
30 | R37I | 10.2
31 | R37N | 9.84
32 | R37S | 9.49
33 | R37P | -2.21
34 | R37Y | 8.59
35 | R37G | 7.39
36 | R37T | 9.28
37 | R37F | 8.99
38 | R27V | 10.1
39 | R27S | 11.2
40 | R27D | 9.47
41 | R27P | 2.88
42 | R27K | 12.3
43 | R27I | 11.1
44 | R27M | 10.9
45 | R27T | 10.5
46 | R27F | 8.41
47 | R27A | 12.7
48 | R27Y | 9.23

Row | Variant | folding stability dG [kJ/mol]
49 | R27W | 8.39
50 | R27N | 11.8
51 | R27G | 9.87
52 | R27L | 11.8
53 | R27H | 10.9
54 | R27Q | 11.8
55 | R27E | 11.4
56 | R27C | 8.35
57 | S31W | 5.3
58 | S31N | 10
59 | S31V | 6.94
60 | S31Q | 9.16
61 | S31I | 6.03
62 | S31P | 11.1
63 | S31A | 10.3
64 | S31E | 9.06
65 | S31T | 12.7
66 | S31M | 8.82
67 | S31C | 7.26
68 | S31K | 8.66
69 | S31G | 12.3
70 | S31R | 7.83
71 | S31L | 9.27
72 | S31D | 10.9

Row | Variant | folding stability dG [kJ/mol]
73 | S31F | 5.85
74 | S31Y | 5.44
75 | S31H | 8.16
76 | R39V | 11.1
77 | R39P | 0.406
78 | R39S | 8.8
79 | R39E | 7.42
80 | R39I | 8.74
81 | R39W | 8.43
82 | R39N | 4.92
83 | R39D | 1.64
84 | R39H | 7.52
85 | R39C | 6.38
86 | R39Q | 9.21
87 | R39T | 7.92
88 | R39M | 8.79
89 | R39A | 9.93
90 | R39F | 8.15
91 | R39K | 12.5
92 | R39L | 9.1
93 | R39G | 4.84
94 | R39Y | 7.83
95 | E41F | 7.69
96 | E41W | 9.97

Row | Variant | folding stability dG [kJ/mol]
97 | E41G | 6.64
98 | E41I | 9.97
99 | E41T | 8.24
100 | E41D | 9.84
101 | E41K | 8.31
102 | E41A | 10.7
103 | E41S | 8.57
104 | E41M | 10.8
105 | E41C | 7.86
106 | E41Y | 6.81
107 | E41Q | 11.6
108 | E41L | 11
109 | E41R | 8.65
110 | E41V | 8.97
111 | E41P | 3.35
112 | E41N | 7.43
113 | E41H | 7.09
114 | Y35F | 14.8
115 | Y35T | 1.51
116 | Y35Q | 1.84
117 | Y35D | 0.092
118 | Y35K | 0.0377
119 | Y35M | 9.59
120 | Y35I | 5.8

Row | Variant | folding stability dG [kJ/mol]
121 | Y35N | -0.238
122 | Y35C | 2.96
123 | Y35G | -0.209
124 | Y35R | 1.18
125 | Y35S | 1.22
126 | Y35W | 10.8
127 | Y35H | 0.594
128 | Y35L | 9.44
129 | Y35A | 1.25
130 | Y35V | 6.67
131 | Y35E | 1.03
132 | N29W | 6.33
133 | N29Y | 7.93
134 | N29G | 13.8
135 | N29H | 11.2
136 | N29I | 5.13
137 | N29C | 7.65
138 | N29K | 11.5
139 | N29L | 9.3
140 | N29D | 9.98
141 | N29Q | 11
142 | N29P | 4.06
143 | N29A | 9.79
144 | N29M | 10.5

Row | Variant | folding stability dG [kJ/mol]
145 | N29R | 10.7
146 | N29S | 10.1
147 | N29F | 9.57
148 | N29V | 5.9
149 | N29E | 9.56
150 | N29T | 6.61
151 | E34S | 4.78
152 | E34T | 6.31
153 | E34G | 4.45
154 | E34H | 3.78
155 | E34C | 7.74
156 | E34V | 7.56
157 | E34Y | 3.87
158 | E34A | 7.07
159 | E34Q | 7.02
160 | E34F | 3.2
161 | E34W | 4.61
162 | E34D | 10.1
163 | E34R | -1.09
164 | E34L | 6.51
165 | E34M | 7.21
166 | E34N | 3.83
167 | E34I | 7.47
168 | E34K | -0.9

Row | Variant | folding stability dG [kJ/mol]
169 | L38M | 9.46
170 | L38K | 1.33
171 | L38E | 1.35
172 | L38N | 1.39
173 | L38F | 6.6
174 | L38Y | 7.74
175 | L38S | 1.58
176 | L38W | 7.45
177 | L38G | 0.678
178 | L38Q | 2.06
179 | L38R | 2.39
180 | L38D | 0.54
181 | L38P | -0.0795
182 | L38A | 3.47
183 | L38V | 5.13
184 | L38H | 1.47
185 | L38T | 2.48
186 | L38I | 11.5
187 | L38C | 5.42
188 | K26F | 10.3
189 | K26I | 12.2
190 | K26D | 11.3
191 | K26Y | 9.82
192 | K26T | 11.7

Row | Variant | folding stability dG [kJ/mol]
193 | K26Q | 12.5
194 | K26A | 12.7
195 | K26G | 9.65
196 | K26L | 12.7
197 | K26E | 11.8
198 | K26R | 13
199 | K26H | 11.5
200 | K26P | 2.31
201 | K26V | 11.4
202 | K26W | 8.41
203 | K26S | 11.5
204 | K26N | 11
205 | K26M | 12.2
206 | P32C | 8.66
207 | P32A | 12.7
208 | P32I | 11.6
209 | P32S | 11.2
210 | P32T | 10.9
211 | P32F | 11.5
212 | P32Q | 11.7
213 | P32D | 12.6
214 | P32R | 11.4
215 | P32G | 9.9
216 | P32W | 12.2

Row | Variant | folding stability dG [kJ/mol]
217 | P32V | 11.5
218 | P32N | 11
219 | P32M | 11.7
220 | P32L | 11.9
221 | P32H | 11.3
222 | P32K | 11.1
223 | P32E | 11.9
224 | P32Y | 11.3
225 | A25Q | 9.01
226 | A25W | -0.213
227 | A25M | 7.86
228 | A25T | 4.21
229 | A25R | 4.85
230 | A25P | 2.23
231 | A25N | 2.18
232 | A25Y | 2.26
233 | A25S | 7.26
234 | A25L | 3.42
235 | A25V | 5.72
236 | K40R | 13.9
237 | K40A | 13.2
238 | K40S | 12.1
239 | K40G | 11
240 | K40T | 11.7

Row | Variant | folding stability dG [kJ/mol]
241 | K40L | 13.4
242 | K40V | 12.6
243 | K40D | 11
244 | K40I | 13.2
245 | K40F | 11.7
246 | K40Q | 13.6
247 | K40H | 12.6
248 | K40N | 11.4
249 | K40W | 13.5
250 | K40P | 2.41
251 | K40E | 12.5
252 | K40M | 13.4
253 | K40Y | 12.1
254 | E36Y | 6.38
255 | E36N | 9.15
256 | E36D | 11.3
257 | E36G | 4.72
258 | E36F | 6.69
259 | E36C | 12
260 | E36K | 6.22
261 | E36S | 7.31
262 | E36P | 1.09
263 | E36H | 7.33
264 | E36M | 9.36

Row | Variant | folding stability dG [kJ/mol]
265 | E36W | 7.04
266 | E36R | 6.98
267 | E36L | 9.38
268 | E36A | 9.64
269 | E36Q | 8.81
270 | E36V | 6.26
271 | E36I | 7.86
272 | E36T | 7.1
273 | E43D | 10.7
274 | E43C | 10.9
275 | E43G | 10.3
276 | E43F | 14.1
277 | E43A | 12.3
278 | E43H | 11.6
279 | A28P | 2.41
280 | A28N | 12.1
281 | A28E | 8.21
282 | A28V | 9.69
283 | A28M | 11
284 | A28L | 13.6
285 | A28H | 11.8
286 | A28D | 5.71
287 | A28G | 9.7
288 | A28Q | 9.31

Row | Variant | folding stability dG [kJ/mol]
289 | A28K | 7.62
290 | A28F | 12.2
291 | A28T | 9.43
292 | A28I | 12.5
293 | A28Y | 12.7
294 | A28C | 11.6
295 | A28R | 7.72
296 | A28S | 10.5
297 | A28W | 9.39
298 | A42T | 9.65
299 | A42D | 4.04
300 | A42P | 3.33
301 | A42N | 7.58
302 | A42H | 6.49
303 | A42E | 5.24
304 | A42W | 9.22
305 | A42I | 12
306 | A42G | 6.8
307 | A42F | 9.59
308 | A42K | 4.31
309 | A42R | 5.07
310 | A42S | 9.92
311 | A42Q | 7.85
312 | A42V | 13.9

Row | Variant | folding stability dG [kJ/mol]
313 | A42L | 10.6
314 | A42Y | 8.94
315 | A42M | 10.5
316 | E33W | 8.62
317 | E33Q | 10.8
318 | E33T | 9.74
319 | E33D | 11
320 | E33A | 11.3
321 | E33V | 9.28
322 | E33L | 9.5
323 | E33Y | 8.05
324 | E33S | 10.2
325 | E33G | 9.43
326 | E33R | 8.31
327 | E33F | 8.2
328 | E33P | 6.57
329 | E33H | 8.49
330 | E33M | 9.74
331 | E33I | 9.17
332 | E33N | 8.67
333 | E33K | 8.54
334 | E33C | 9.56
